Values of other authors as cited in PMC3772054.

How the values were obtained:
IL-2Rα (Homo sapiens) = IL-2Rα (Homo sapiens) (UniProt P01589)
IL-15Rα (Homo sapiens) = IL-15Rα (Homo sapiens) (UniProt Q13261)
UniProt Q13261, sequence (Q13261 31-205): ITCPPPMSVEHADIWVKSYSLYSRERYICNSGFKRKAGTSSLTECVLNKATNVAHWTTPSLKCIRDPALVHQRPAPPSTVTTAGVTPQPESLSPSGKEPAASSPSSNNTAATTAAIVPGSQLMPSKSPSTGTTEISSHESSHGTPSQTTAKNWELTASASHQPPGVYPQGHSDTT

UniProt P01589, sequence (P01589 22-240): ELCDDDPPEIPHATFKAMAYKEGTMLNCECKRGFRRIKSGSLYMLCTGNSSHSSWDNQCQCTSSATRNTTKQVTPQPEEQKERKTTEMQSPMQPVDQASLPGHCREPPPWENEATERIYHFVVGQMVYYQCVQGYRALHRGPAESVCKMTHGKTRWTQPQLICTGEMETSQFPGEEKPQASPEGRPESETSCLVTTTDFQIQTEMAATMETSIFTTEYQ

IL-2 (from UniProt P60568)
Kd (IL-2Rα (Homo sapiens)): 4.8 nM

IL-15 (from UniProt P40933)
Kd (IL-15Rα (Homo sapiens)): 0.038 nM
